US5942491A (priority 1996, dated 1999)
Entries after “also recorded” stand apart in the source; their conditions may differ. Like-named read-outs stand apart in the source and are kept apart here. Where no end group is shown, it is not given here.

Experiments:
[1] = test system: adjuvant arthritis; type: in vivo, Lewis rats
[2] = test system: adjuvant arthritis; parameters: species or system Lewis rats; conditions: rat, in vivo
[3] = test system: adjuvant arthritis; assay: Adjuvant-induced model of arthritis, summary statements on prevention and treatment; type: in vivo, Lewis rats; conditions: summary statement
[4] = test system: adjuvant arthritis; conditions: for Development of experimental allergic encephalomyelitis (EAE): arthritogenic doses of CFA (Mb) combined with MBP

Molecule | Effect on the course of pre-existing arthritis ([1]; rat, in vivo) | Protective effect against induction of adjuvant arthritis [2] | Remission of arthritis ([1]; rat, in vivo) | Anti-arthritic activity after storage ([1]; solvated and kept in refrigerator at 4 degrees centigrade for three months) | Prevention and suppression/treatment of arthritis (summary in words) ([3]; listed as MBP) | Prevention and suppression/treatment of arthritis (summary in words) ([3]; listed as pMBP) | Development of experimental allergic encephalomyelitis (EAE) [4] | Development of experimental allergic encephalomyelitis (EAE) ([4]; listed as MBP) | A. Number of animals inoculated/number of animals with arthritis ([4]; rat, in vivo) | C. Average day of onset of arthritis ([4]; rat, in vivo) [days] | D. Average duration of symptoms ([4]; rat, in vivo) [days] | Effect of co-inoculation with FCA on arthritis (in words) ([4]; rat, in vivo) | Effect of co-inoculation with FCA on arthritis (in words) ([4]; rat, in vivo, listed as MBP)
FSWGAEGQR [EAE peptide, EAE peptide derived from MBP, reference compound] | somewhat effective | – | – | – | – | – | – | – | – | – | – | – | –
OA: chicken ovalbumin (Sigma) (protein, UniProt P01012 2-386, looked up) Ovalbumin: GSIGAASMEFCFDVFKELKVHHANENIFYCPIAIMSALAMVYLGAKDSTRTQINKVVRFDKLPGFGDSIEAQCGTSVNVHSSLRDILNQITKPNDVYSFSLASRLYAEERYPILPEYLQCVKELYRGGLEPINFQTAADQARELINSWVESQTNGIIRNVLQPSSVDSQTAMVLVNAIVFKGLWEKAFKDEDTQAMPFRVTEQESKPVQMMYQIGLFRVASMASEKMKILELPFASGTMSMLVLLPDEVSGLEQLESIINFEKLTEWTSSNVMEERKIKVYLPRMKMEEKYNLTSVLMAMGITDVFSSSANLSGISSAESLKISQAVHAAHAEINEAGREVVGSAEAGVDAASVSEEFRADHPFLFCIKHIATNAVLFFGRCVSP | – | very significant protective effects against induction of adjuvant arthritis; also recorded: protective | – | – | – | – | – | – | – | – | – | – | –
BP: Porcine myelin basic protein (Lilly) (protein, UniProt P81558 1-171, looked up) Myelin basic protein: ASQKRPSQRHGSKYLASASTMDHARHGFLPRHRDTGIDSLGRFFGADRGAPKRGSGKDGHHAARTTHYGSLPQKAQHGRPQDENPVVHFFKNIVTPRTPPPSQGKGRGLSLSRFSWGAEGQKPGFGYGGRAPDYKPAHKGLKGAQDAQGTLSKIFKLGGRDSRSGSPMARR | marked effect on the course of the arthritis, reducing the clinical severity of the disease | minimal protective effects that were of limited clinical value | complete remission in all three animals tested | no activity | prevent and suppress arthritis | appear to protect against and to effectively treat pre-existing arthritis clinical symptoms | developed experimental allergic encephalomyelitis (EAE) | All six animals developed EAE | 0/6 | 0 | 0 | did not develop any symptoms of arthritis over a period of 2 months | none had any clinical signs or arthritis
